Experimental data: patent US20260109761A1 (IP2IPO INNOVATIONS, published 2026)

Experiments:
[1] = target: T1, LIN15 34-48 SEQ ID No: 223; experiment: peptide-array ELISA on mimics of the human ZIP12 ECD (peroxidase conjugate, ABTS, CCD read-out); antibody concentration of this value not given
T1 peptide: SRSRGSSGQPADLLQ
Description: (§1) The binding of antibody to each of the synthesized peptides was tested in a peptide-based ELISA. The peptide arrays were incubated with primary antibody solution (overnight at 4° C.). After washing, the peptide arrays were incubated with a 1/1000 dilution of an appropriate antibody peroxidase conjugate for one hour at 25° C. After washing, the peroxidase substrate 2,2′-azino-di-3-ethylbenzthiazoline sulfonate (ABTS) and […] of 3 percent H2O2 were added. After one hour, the colour development was measured. The colour development was quantified with a charge coupled device—camera and an image processing system.

[2] = target: T2, LIN15 36-50 SEQ ID No: 225; experiment: as above
T2 peptide: SRGSSGQPADLLQVL
Description: as §1

[3] = target: T3, BETA22 31-52 SEQ ID No: 248 (not fully specified); experiment: as above
T3 construct: beta-turn mimic
T3 peptide: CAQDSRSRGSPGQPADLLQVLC
Description: as §1

[4] = target: T4, HEL19 38-56 SEQ ID No: 245; experiment: as above
T4 construct: alpha-helical mimic
T4 peptide: CGSSCQPADLLQVLSAGDH
Description: as §1

[5] = target: T5, HEL19 32-50 SEQ ID No: 242; experiment: as above
T5 construct: alpha-helical mimic
T5 peptide: CQDSCSRGSSGQPADLLQV
Description: as §1

[6] = target: T6, BETA22 32-53 SEQ ID No: 249 (not fully specified); experiment: as above
T6 construct: beta-turn mimic
T6 peptide: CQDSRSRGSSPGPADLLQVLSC
Description: as §1

[7] = target: T7, LIN15 35-49 SEQ ID No: 224; experiment: as above
T7 peptide: RSRGSSGQPADLLQV
Description: as §1

[8] = target: T8, LOOP15 37-51 SEQ ID No: 240; experiment: as above
T8 construct: constrained mimic
T8 peptide: CRGSSGQPADLLQVC
Description: as §1

[9] = target: T9, LIN15 37-51 SEQ ID No: 226; experiment: as above
T9 peptide: RGSSGQPADLLQVLS
Description: as §1

[10] = target: T10, HEL19 33-51 SEQ ID No: 243; experiment: as above
T10 construct: alpha-helical mimic
T10 peptide: CDSRCRGSSGQPADLLQVL
Description: as §1

[11] = target: T11, LOOP15 35-49 SEQ ID No: 238; experiment: as above
T11 construct: constrained mimic
T11 peptide: CRSRGSSGQPADLLC
Description: as §1

[12] = target: T12, LOOP15 36-50 SEQ ID No: 239; experiment: as above
T12 construct: constrained mimic
T12 peptide: CSRGSSGQPADLLQC
Description: as §1

[13] = target: T13, HEL19 31-49 SEQ ID No: 241; experiment: as above
T13 construct: alpha-helical mimic
T13 peptide: CAQDCRSRGSSGQPADLLQ
Description: as §1

[14] = target: T14, HEL19 37-55 SEQ ID No: 244; experiment: as above
T14 construct: alpha-helical mimic
T14 peptide: CRGSCGQPADLLQVLSAGD
Description: as §1

huZIP12-ECD-GST = target: T15, huZIP12-ECD-GST (human, UniProt Q504Y0 24-202); experiment: SPR single cycle kinetics (Biacore): mAb captured on protein A, ZIP12-ECD-GST injected; average data
T15 construct: also called hZIP12-ECD-GST; human ZIP12-ECD-GST; not shown: glutathione S-transferase (GST) tag

[15] = target: T16, cynomolgus monkey ZIP12-ECD-GST (cynomolgus monkey, UniProt Q95KA5 24-207); experiment: as above
T16 construct: extracellular domain; also called cyno ZIP12 fusion protein; cynomolgus monkey ZIP12-GST-ECD; not shown: glutathione S-transferase (GST) tag
T16 sequence (Q95KA5 24-207): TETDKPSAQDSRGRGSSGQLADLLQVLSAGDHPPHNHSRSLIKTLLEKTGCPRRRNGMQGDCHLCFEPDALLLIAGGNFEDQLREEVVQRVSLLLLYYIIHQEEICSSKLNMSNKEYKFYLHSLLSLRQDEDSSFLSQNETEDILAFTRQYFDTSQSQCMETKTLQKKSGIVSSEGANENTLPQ

T15 sequence (Q504Y0 24-202): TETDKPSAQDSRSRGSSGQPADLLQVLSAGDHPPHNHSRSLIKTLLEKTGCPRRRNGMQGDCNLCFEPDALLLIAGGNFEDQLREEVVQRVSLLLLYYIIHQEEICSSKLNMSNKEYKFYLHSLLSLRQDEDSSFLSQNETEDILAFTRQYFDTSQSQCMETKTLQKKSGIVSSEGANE

B1: H3_W99H_L1 (antibody, V domains shown)
VH: QVQLVESGGGVVQPGRSLRLSCAASGFTFSDYGMHWVRQAPGKGLEWVAYISSGGTTIYYADTVKGRFTISRDNSKNTLYLQMNSLRAEDTAVYYCARHTNLYAMDYWGQGTTVTVSS
VL: DIVLTQSPDSLAVSLGERATINCRASKSVSTQGYSYMHWYQQKPGQPPKFLIYLASNLESGVPDRFSGSGSGTDFTLTISSLQAEDVAVYYCQHSREVPYTFGGGTKVEIKR
notes: Fc null human IgG1 / human kappa
value [1]: 1650
value [2]: 2650
value [3]: 2440
value [4]: 828
value [5]: 2140
value [6]: 1350
value [7]: 2460
value [8]: 1830
value [9]: 2570
value [10]: 2610
value [11]: 901
value [12]: 976
value [13]: 1700
value [14]: 2760
koff (huZIP12-ECD-GST): 0.000261 s⁻¹
kon (huZIP12-ECD-GST): 64900 M⁻¹ s⁻¹
koff [15]: 0.000218 s⁻¹
kon [15]: 34600 M⁻¹ s⁻¹
